1 molecule from article PMC4538837, “Structural basis for substrate recognition and processive cleavage mechanisms of the trimeric exonuclease PhoExo I” can be followed below.

The target of the series is PhoExo I D80N (Pyrococcus horikoshii OT3, UniProt A0A060P168 1-229, D80N). The series is described as follows: X-ray crystal structure (1.95 A); Mg2+ (soaked), one at A metal site; EMSA: 25 mM Hepes-NaOH pH 7.5, 50 mM NaCl, 0.1 mM EDTA, 0.1 mg/ml BSA, 5 nM probe, 0-1600 nM trimer, 5 min 55 C, then 0.05% glutaraldehyde 10 min at room temperature; 7.5% native PAGE in TBE. To be noted: protein: recombinant; tags: C-terminal 4xHis (mutants made from the CHis plasmid; crystal construct not detailed in the material); chain copies: 3; single strand; 3 copies per trimer. Background: Mobility shift assays separate free from complexed probe on a gel.
Chain of PhoExo I D80N (A0A060P168 entry or part of it D80N | D80N D80N): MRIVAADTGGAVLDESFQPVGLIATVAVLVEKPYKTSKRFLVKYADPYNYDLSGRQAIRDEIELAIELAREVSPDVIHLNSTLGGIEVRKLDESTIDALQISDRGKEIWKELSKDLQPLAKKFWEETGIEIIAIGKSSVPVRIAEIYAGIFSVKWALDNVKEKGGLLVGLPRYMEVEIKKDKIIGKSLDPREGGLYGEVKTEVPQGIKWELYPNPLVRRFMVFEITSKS

With TTTTTTT (ssDNA) [poly-dT 7 nt], the binding result is reported as “binds”.
